Data from US20220193237A1 (Bristol-Myers Squibb, published 2022).

B1: ipi.105, non-fucosylated IgG1 (antibody, V domains shown)
VH: QVQLVESGGGVVQPGRSLRLSCAASGFTFSHYTMHWVRQAPGKGLEWVTFISYDGHNKYYADSVKGRFTISRDNSKNTLYLQMNSLRAEDTAIYYCARTGWLGPFDYWGQGTLVTVSS
VL: EIVLTQSPGTLSLSPGERATLSCRASQEVGESELAWYQQKPGQAPRLLIYGAFSRATGIPDRFSGSGSGTDFTLTISRLEPEDFAVYYCQQYGSSPWTFGQGTKVEIKR
modifications: non-fucosylated N-linked glycan
notes: Non-fucosylated full-length human IgG1; also called Ipi.105 IgG1-NF
B2: ipi.18 Fab (Fab, V domains shown)
VH: QVQLVESGGGVVQPGRSLRLSCAASGFTFSSYTMHWVRQAPGKGLEWVTFISYDGNNKYYADSVKGRFTISRDNSKNTLYLQMNSLRAEDTAIYYCARTGWLGPFDYWGQGTLVTVSS
VL: not shown
notes: Tested as monovalent Fab; also called S31D
B3: ipi.105 Fab (Fab, V domains shown)
VH: QVQLVESGGGVVQPGRSLRLSCAASGFTFSHYTMHWVRQAPGKGLEWVTFISYDGHNKYYADSVKGRFTISRDNSKNTLYLQMNSLRAEDTAIYYCARTGWLGPFDYWGQGTLVTVSS
VL: EIVLTQSPGTLSLSPGERATLSCRASQEVGESELAWYQQKPGQAPRLLIYGAFSRATGIPDRFSGSGSGTDFTLTISRLEPEDFAVYYCQQYGSSPWTFGQGTKVEIKR
notes: Tested as monovalent Fab
B4: ipi.24 Fab (Fab, V domains shown)
VH: QVQLVESGGGVVQPGRSLRLSCAASGFTFSSYTMHWVRQAPGKGLEWVTFISYDGNNKYYADSVKGRFTISRDNSKNTLYLQMNSLRAEDTAIYYCARTGWLGPFDYWGQGTLVTVSS
VL: not shown
notes: Tested as monovalent Fab
B5: ipi.26 Fab (Fab, V domains shown)
VH: QVQLVESGGGVVQPGRSLRLSCAASGFTFSSYTMHWVRQAPGKGLEWVTFISYDGNNKYYADSVKGRFTISRDNSKNTLYLQMNSLRAEDTAIYYCARTGWLGPFDYWGQGTLVTVSS
VL: not shown
notes: Tested as monovalent Fab
B6: ipi.17 Fab (Fab, V domains shown)
VH: QVQLVESGGGVVQPGRSLRLSCAASGFTFSSYTMHWVRQAPGKGLEWVTFISYDGNNKYYADSVKGRFTISRDNSKNTLYLQMNSLRAEDTAIYYCARTGWLGPFDYWGQGTLVTVSS
VL: not shown
notes: Tested as monovalent Fab; also called S28E
B7: ipi.101 Fab (Fab, V domains shown)
VH: QVQLVESGGGVVQPGRSLRLSCAASGFTFSHYTMHWVRQAPGKGLEWVTFISYDGHNKYYADSVKGRFTISRDNSKNTLYLQMNSLRAEDTAIYYCARTGWLGPFDYWGQGTLVTVSS
VL: not shown
notes: Tested as monovalent Fab
B8: ipi.23 Fab (Fab, V domains shown)
VH: QVQLVESGGGVVQPGRSLRLSCAASGFTFSSYTMHWVRQAPGKGLEWVTFISYDGNNKYYADSVKGRFTISRDNSKNTLYLQMNSLRAEDTAIYYCARTGWLGPFDYWGQGTLVTVSS
VL: not shown
notes: Tested as monovalent Fab

What was measured:
[1] = biological target: T1, human CTLA-4 on 58 α-β-CTLA-4/CD3 ζ cells (human; mouse (mCD3ζ)); assay: flow cytometry, non-fucosylated IgG1 on 58αβ-CTLA4/mCD3ζ cells, pH 6.2
T1 construct: also called 58αβ-hCTLA4/mCD3ζ cells; 58αβ-CTLA4/mCD3ζ cells
Experimental: (§1) Antibodies were titrated from 100 μg/mL at a 1:4 dilution across 12 points in pH-specific buffers and incubated for 30-60 minutes. Buffers contained HBSS, 2% FBS^HI, 0.02% sodium azide, 2 mM EDTA, and sodium phosphate buffer (pH 5.4). Sodium phosphate buffer was added until desired pH was reached (7.2, 6.7, 6.2). Approximately 3e5 cells/well were tested for each cell line. […] Detection was done with a monovalent anti-hKappa secondary nanobody conjugated to Alexa647 and used at a dilution of 1:2000. Cells were fixed with BD Fix Solution I for 30 minutes prior to resuspension in pH-specific buffers and reading on the cytometer (BD Fortessa).

[2] = biological target: T1, human CTLA-4 on 58 α-β-CTLA-4/CD3 ζ …; assay: flow cytometry, non-fucosylated IgG1 on 58αβ-CTLA4/mCD3ζ cells, pH 7.2
Experimental: as §1

[3] = biological target: T1, human CTLA-4 on 58 α-β-CTLA-4/CD3 ζ …; assay: cell-based or functional assay
[4] = biological target: T1, human CTLA-4 on 58 α-β-CTLA-4/CD3 ζ …; assay: flow cytometry, non-fucosylated IgG1 on 58αβ-CTLA4/mCD3ζ cells, pH 6.7
Experimental: as §1

[5] = biological target: T1, human CTLA-4 on 58 α-β-CTLA-4/CD3 ζ …; assay: cell-based or functional assay; remark: listed apart in the source
monomeric human CTLA-4 [6] = biological target: T2, monomeric human CTLA-4 (human, UniProt P16410 36-161, limits assumed); assay: SPR, captured Fab, pH 6.0 vs 7.4
T2 construct: Soluble monomeric analyte in SPR; also called huCTLA-4
T2 sequence: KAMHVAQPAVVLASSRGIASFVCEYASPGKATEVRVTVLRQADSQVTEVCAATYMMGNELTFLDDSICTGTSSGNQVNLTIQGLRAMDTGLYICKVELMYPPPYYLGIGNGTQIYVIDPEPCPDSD
Experimental: (§2) Binding of selected variants to human CTLA-4 was determined essentially as described in Example 3. […] Nomenclature and sequences for these antibodies is provided at Tables 6 and 7, and in the sequence listing as summarized at Table 8.
(§3) Monomeric human CTLA-4 was flowed as analyte with up to 2 μM top concentration. Between cycles, the capture surface was regenerated with 75 mM phosphoric acid. Experiments were run on a BIACORE® T200 instrument at 37° C. Running buffers were HEPES buffered saline for pH 7.4 experiments and Bis-Tris buffered saline for lower pH experiments. […] Double referenced sensorgrams were fitted to a 1:1 Langmuir binding model with mass transport to determine equilibrium dissociation constants (KD), as well as association (kₐ) and dissociation (kd) rate constants where appropriate.

monomeric human CTLA-4 [7] = biological target: T2, monomeric human CTLA-4; assay: SPR, captured Fab, pH 7.4
Experimental: (§4) See Example 3. Antibodies were tested as monovalent Fab fragments to simplify analysis.
as §3

monomeric human CTLA-4 [8] = biological target: T2, monomeric human CTLA-4; assay: SPR, captured Fab, first experiment of Table 3
Experimental: as §4, §3

monomeric human CTLA-4 [9] = biological target: T2, monomeric human CTLA-4; assay: SPR, captured Fab, pH 6.0
Experimental: as §4, §3

monomeric human CTLA-4 [10] = biological target: T2, monomeric human CTLA-4; assay: SPR, captured Fab, pH 6.0; remark: listed apart in the source
Experimental: as §2, §3

monomeric human CTLA-4 [11] = biological target: T2, monomeric human CTLA-4; assay: SPR, captured Fab, pH 6.0 vs 7.4; remark: listed apart in the source
Experimental: as §4, §3

monomeric human CTLA-4 [12] = biological target: T2, monomeric human CTLA-4; assay: SPR, captured Fab, pH 7.4; remark: listed apart in the source
Experimental: as §2, §3

monomeric cyno CTLA-4 = biological target: T3, monomeric cyno CTLA-4 (cynomolgus macaque (Macaca fascicularis), UniProt G7PL88 36-161); assay: SPR, Fab, monomeric cyno CTLA-4 as analyte; koff (s^-1, linear axis 0 to 0.3) plotted against pH
T3 construct: also called CTLA-4 from the cynomolgus macaque Macaca fascicularis
T3 sequence: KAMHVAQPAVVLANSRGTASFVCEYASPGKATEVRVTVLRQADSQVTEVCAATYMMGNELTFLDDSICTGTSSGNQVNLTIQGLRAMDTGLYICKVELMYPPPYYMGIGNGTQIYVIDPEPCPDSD
Experimental: The pH dependence of binding of selected antibodies of the present invention to human CTLA-4 and cyno CTLA-4 was measured by surface plasmon resonance (SPR) spectroscopy, essentially as described in Example 3. Briefly, antibodies were studied as monovalent Fab fragments. Anti-human kappa polyclonal capture antibody (Southern Biotech, Ala. USA) was immobilized on a ethylenediamine-blocked CM4 sensor chip in a Biacore T200 surface plasmon resonance system. Fab fragments of selected antibodies of the present invention were then captured on one flow cell each. […] Running buffer was 20 mM BisTris, 150 mM NaCl, 0.05% Tween-20, 1 g/L BSA, at a pH ranging from 5.5 to 7.4 in 0.1-0.2 pH unit intervals (12 total). The surface was regenerated with 1/200 H₃PO₄ between cycles. […] Where required, the Rₘₐₓ was fixed by calculating expected binding based on capture level and apparent activity from other fits for the same Fab.

[13] = biological target: T1, human CTLA-4 on 58 α-β-CTLA-4/CD3 ζ …; assay: flow cytometry (APC mean FI), Fab on 58αβ-CTLA4/mCD3ζ cells, pH 6.2
Experimental: as §1
The experimental protocol was the same as used to obtain the data of FIGS. 16A-C.

monomeric human CTLA-4 [14] = biological target: T2, monomeric human CTLA-4; assay: SPR, captured Fab, pH 6.0, second experiment
Experimental: as §4, §3

monomeric human CTLA-4 [15] = biological target: T2, monomeric human CTLA-4; assay: SPR, captured Fab, second experiment of Table 3
Experimental: as §4, §3

monomeric human CTLA-4 [16] = biological target: T2, monomeric human CTLA-4; assay: SPR, captured Fab, pH 7.4, second experiment
Experimental: as §4, §3

monomeric human CTLA-4 [17] = biological target: T2, monomeric human CTLA-4; assay: SPR, captured Fab, pH 6.0 vs 7.4, second experiment
Experimental: as §4, §3

Binder	KD 7.4/6 (APBP) (monomeric human CTLA-4 [6])	ka 6/7.4 (monomeric human CTLA-4 [6])	t1/2 6/7.4 (monomeric human CTLA-4 [6])	Kd (monomeric human CTLA-4 [10])	kon (monomeric human CTLA-4 [10])	t1/2 (monomeric human CTLA-4 [10])	Kd (monomeric human CTLA-4 [12])	kon (monomeric human CTLA-4 [12])	t1/2 (monomeric human CTLA-4 [12])	Kd (monomeric human CTLA-4 [14])	koff (monomeric human CTLA-4 [14])	kon (monomeric human CTLA-4 [14])	ratio of KD (7.4/6.0) normalized to the ratio of ipilimumab (monomeric human CTLA-4 [15])	Kd (monomeric human CTLA-4 [16])	koff (monomeric human CTLA-4 [16])	kon (monomeric human CTLA-4 [16])	KD 7.4/6 (APBP) (monomeric human CTLA-4 [17])	ka 6/7.4 (monomeric human CTLA-4 [17])	kd 7.4/6 (monomeric human CTLA-4 [17])	further results
B1																				Cmax (MFI) [1]: 107000 MFI; EC50 [1]: 2.6 nM; Cmax (MFI) [2]: 107000 MFI; EC50 [2]: 3.94 nM; IC50 (read off the curve), mIL-2 secretion, 58αβ-hCTLA/mCD3ζ:rhB7-1 blocking assay, 18 h, pH 7.0 [3]: ~4 nM; Cmax (MFI) [4]: 110000 MFI; EC50 [4]: 3.45 nM; IC50 (read off the curve), mIL-2 secretion, 58αβ-hCTLA/mCD3ζ:rhB7-1 blocking assay, 18 h, pH 6.8 [5]: ~2 nM
B2	3.1	1.7	1.9	8.8 nM	1.1e+06 M⁻¹ s⁻¹	75 s	28 nM	640000 M⁻¹ s⁻¹	39 s											Kd (monomeric human CTLA-4 [7]): 28 nM; koff (monomeric human CTLA-4 [7]): 0.018 s⁻¹; kon (monomeric human CTLA-4 [7]): 640000 M⁻¹ s⁻¹; ratio of KD (7.4/6.0) normalized to the ratio of ipilimumab (monomeric human CTLA-4 [8]): 3.2; Kd (monomeric human CTLA-4 [9]): 8.8 nM; koff (monomeric human CTLA-4 [9]): 0.0093 s⁻¹; kon (monomeric human CTLA-4 [9]): 1.1e+06 M⁻¹ s⁻¹; KD 7.4/6 (APBP) (monomeric human CTLA-4 [11]): 3.2; ka 6/7.4 (monomeric human CTLA-4 [11]): 1.7; kd 7.4/6 (monomeric human CTLA-4 [11]): 1.9
B3	76			2.5 nM	1.3e+06 M⁻¹ s⁻¹	217 s	390 nM													binding result (monomeric cyno CTLA-4): binds; EC50 (read off the curve) [13]: ~0.2 µg/mL
B4										7.2 nM	0.006 s⁻¹	830000 M⁻¹ s⁻¹	4.1	24 nM	0.0099 s⁻¹	420000 M⁻¹ s⁻¹	3.3	2	1.7	
B5										8.9 nM	0.007 s⁻¹	790000 M⁻¹ s⁻¹	4.3	30 nM	0.012 s⁻¹	410000 M⁻¹ s⁻¹	3.4	2	1.7	
B6	1.3	1.2	1.1	14 nM	1e+06 M⁻¹ s⁻¹	46 s	19 nM	850000 M⁻¹ s⁻¹	43 s											Kd (monomeric human CTLA-4 [7]): 19 nM; koff (monomeric human CTLA-4 [7]): 0.016 s⁻¹; kon (monomeric human CTLA-4 [7]): 850000 M⁻¹ s⁻¹; ratio of KD (7.4/6.0) normalized to the ratio of ipilimumab (monomeric human CTLA-4 [8]): 1.4; Kd (monomeric human CTLA-4 [9]): 14 nM; koff (monomeric human CTLA-4 [9]): 0.015 s⁻¹; kon (monomeric human CTLA-4 [9]): 1e+06 M⁻¹ s⁻¹; KD 7.4/6 (APBP) (monomeric human CTLA-4 [11]): 1.4; ka 6/7.4 (monomeric human CTLA-4 [11]): 1.2; kd 7.4/6 (monomeric human CTLA-4 [11]): 1.1
B7	31	2.5	12	1.5 nM	1.2e+06 M⁻¹ s⁻¹	385 s	45 nM	490000 M⁻¹ s⁻¹	32 s											binding result (monomeric cyno CTLA-4): binds; EC50 (read off the curve) [13]: ~0.07 µg/mL
B8										6.5 nM	0.0062 s⁻¹	960000 M⁻¹ s⁻¹	5.1	27 nM	0.013 s⁻¹	490000 M⁻¹ s⁻¹	4.1	2	2.1	
